# Measurements as given in article PMC11425952, “Characterization of Mycobacterium smegmatis Glutaminase-Free Asparaginase (MSMEG_3173)” (ACS Omega, 2024).
# Test system: NC(=O)C[C@H](N)C(=O)O
# Assay: purified protein
# Assay type: biochemical, Mycolicibacterium smegmatis
# Details: 50 mM Tris-HCl pH 8.6, 37 °C (standard assay), 0.05-4.0 mM L-Asn
substance,measurement,value
"MsA (Mycobacterium smegmatis L-asparaginase, MSMEG_3173) (Mycolicibacterium smegmatis MC2 155)",Km,1403 ± 240 µM
same,kcat,708.1 ± 25.05 s⁻¹
